Source: patent publication US20240043529A1, “METHODS AND COMPOSITIONS RELATED TO BCL2 AND BIM HETERODIMER ANTIBODIES” (Eutropics Pharmaceuticals, Inc., priority 2020, published 2024)

Columns and labels:
[1] = target: T1, bovine serum albumin (BSA) (bovine, UniProt P02769 25-607); assay: ELISA, serially diluted hybridoma supernatant on glutathione plates
T1 construct: Control antigen
Experimental: (§1) This class of heterodimer specific Bc12:Bim reactive monoclonal antibodies are otherwise known as “HSB2B”. […] As controls, reactivity with Bc1xL:Bim, Bc12 and Bc1xL monomers, and bovine serum albumin (BSA) were also screened against. To adhere the Bc1xL and Bc12 to the plates, each was expressed as a recombinant fusion protein with GST at the N-terminus (i.e. GST_Bc12 and GST_Bc1xL). Once adhered to the plate, incubations were either performed with a Bim peptide (which fits into the BH3-binding pocket of Bc12 family members), or PBS (thus retaining the monomeric confirmation). Hybridomas supernatants were subsequently incubated with the coated antigens and detected with HRP conjugated anti-mouse IgG. The reaction was developed with TMB substrate and stopped with sulphuric acid. Gluathione plate wells were scanned using a wavelength filter with an optical density of 450 nanometres (OD₄₅₀).

[2] = target: T2, GST_Bc1xL (Bc1xL monomer) (human, UniProt Q07817 1-209); assay: as above
T2 construct: also called BclxL monomer; not shown: GST (glutathione S-transferase) fused at the N-terminus
T2 sequence (Q07817 1-209): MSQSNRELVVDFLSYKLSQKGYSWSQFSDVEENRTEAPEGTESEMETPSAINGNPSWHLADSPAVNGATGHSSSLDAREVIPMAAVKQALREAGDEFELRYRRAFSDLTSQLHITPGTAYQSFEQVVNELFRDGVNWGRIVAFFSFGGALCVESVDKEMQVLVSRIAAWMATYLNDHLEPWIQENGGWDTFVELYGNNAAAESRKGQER
Experimental: as §1

[3] = target: ABT199 in a heterodimer with Bc12 (Homo sapiens, UniProt P10415); assay: ELISA reactivity with different Bc12 and Bc1_XL heterodimers; assay type: binding; conditions: FIG. 8; signal relative to Bc12:BIM heterodimer
ABT199 in a heterodimer with Bc12, sequence (P10415 whole entry, one chain of several): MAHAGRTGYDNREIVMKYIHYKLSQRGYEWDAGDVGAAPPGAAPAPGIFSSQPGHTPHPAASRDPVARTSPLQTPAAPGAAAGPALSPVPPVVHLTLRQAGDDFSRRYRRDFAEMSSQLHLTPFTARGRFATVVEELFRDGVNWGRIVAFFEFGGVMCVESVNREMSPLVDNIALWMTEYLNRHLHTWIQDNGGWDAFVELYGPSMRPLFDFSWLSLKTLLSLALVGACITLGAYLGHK
Excerpt: (§2) All levels of reactivity are tabulated as percentage magnitudes of signal relative to those yielded with the Bc12:BIM heterodimer. […] 28A9 has low ABT199 cross-reactivity.

Bc12:BIM heterodimer = Bc12:BIM heterodimer (Homo sapiens, UniProt P10415); assay: as above; assay type: binding; conditions: FIG. 8
Bc12:BIM heterodimer, sequence (P10415 whole entry): as the sequence (P10415 whole entry, one chain of several) above
Bc12:BIM heterodimer, sequence (O43521 whole entry partner): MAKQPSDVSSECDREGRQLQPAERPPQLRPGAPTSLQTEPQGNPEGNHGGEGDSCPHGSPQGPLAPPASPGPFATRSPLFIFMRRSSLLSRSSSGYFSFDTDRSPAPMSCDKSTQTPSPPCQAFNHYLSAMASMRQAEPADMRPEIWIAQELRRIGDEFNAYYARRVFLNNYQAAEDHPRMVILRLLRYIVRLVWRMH
Excerpt: as §2

[4] = target: Bc12:Bim heterodimeric complex (Homo sapiens, UniProt P10415); assay: ELISA of hybridoma supernatants on glutathione plates coated with GST_Bc12 complexed with Bim peptide; assay type: binding; conditions: for antigen reactivity of hybridoma supernatants (OD450): FIG. 1, serially diluted supernatants, controls Bc1xL:Bim, Bc12 and Bc1xL monomers, BSA; for hybridoma supernatant reactivity among a more exhaustive range of antigens: FIG. 2, antigens include Mcl1 monomer and Mc11:Bim heterodimeric forms
Bc12:Bim heterodimeric complex, sequence (P10415 whole entry, the tested form may be a part): as the sequence (P10415 whole entry, one chain of several) above
Bc12:Bim heterodimeric complex, sequence (O43521 142-161 partner limits assumed): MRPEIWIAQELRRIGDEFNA
Experimental: This class of heterodimer specific Bc12:Bim reactive monoclonal antibodies are otherwise known as “HSB2B”. […] As controls, reactivity with Bc1xL:Bim, Bc12 and Bc1xL monomers, and bovine serum albumin (BSA) were also screened against. To adhere the Bc1xL and Bc12 to the plates, each was expressed as a recombinant fusion protein with GST at the N-terminus (i.e. GST_Bc12 and GST_Bc1xL). Once adhered to the plate, incubations were either performed with a Bim peptide (which fits into the BH3-binding pocket of Bc12 family members), or PBS (thus retaining the monomeric confirmation). Hybridomas supernatants were subsequently incubated with the coated antigens and detected with HRP conjugated anti-mouse IgG. The reaction was developed with TMB substrate and stopped with sulphuric acid. Gluathione plate wells were scanned using a wavelength filter with an optical density of 450 nanometres (OD450).
As a GST fusion protein (GST_Mc11), HSB2B hybridoma supernatant reactivity was tested against the Mc11 monomeric form, or the heterodimeric forms (created by, either, incubation of Bim peptide (as for FIG. 1), or by covalently linking the Bim peptide to the GST_Mc11). As for FIG. 1, the HSB2B mAbs show specific reactivity with the epitopes induced following the complexing of Bc12 with Bim.

GST_Bc12 (Bc12 monomer) = target: T3, GST_Bc12 (Bc12 monomer) (human, UniProt P10415 1-218, limits assumed); assay: ELISA, serially diluted hybridoma supernatant on glutathione plates
T3 construct: also called Bcl2 monomer; not shown: GST (glutathione S-transferase) fused at the N-terminus
T3 sequence (P10415 1-218 limits assumed): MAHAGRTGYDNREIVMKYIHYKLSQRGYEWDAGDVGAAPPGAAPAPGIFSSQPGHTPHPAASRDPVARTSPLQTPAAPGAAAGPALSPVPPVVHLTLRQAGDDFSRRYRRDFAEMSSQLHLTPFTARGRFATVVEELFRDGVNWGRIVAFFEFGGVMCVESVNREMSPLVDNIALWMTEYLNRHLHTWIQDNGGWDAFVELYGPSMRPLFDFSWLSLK
Experimental: as §1

Bc12:BAX heterodimers = Bc12:BAX heterodimers (Homo sapiens, UniProt P10415); assay: ELISA reactivity with different Bc12 and Bc1_XL heterodimers; assay type: binding; conditions: FIG. 8; signal relative to Bc12:BIM heterodimer
Bc12:BAX heterodimers, sequence (P10415 whole entry): as the sequence (P10415 whole entry, one chain of several) above
Bc12:BAX heterodimers, sequence (Q07812 whole entry partner): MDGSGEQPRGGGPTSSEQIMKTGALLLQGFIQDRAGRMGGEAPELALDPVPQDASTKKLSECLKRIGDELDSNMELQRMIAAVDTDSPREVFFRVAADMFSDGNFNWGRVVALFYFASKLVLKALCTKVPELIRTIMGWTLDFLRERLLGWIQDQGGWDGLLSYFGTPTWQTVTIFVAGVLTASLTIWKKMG
Excerpt: as §2

breast cancer tissue = assay: IHC on FFPE breast cancer tissue; conditions: FIG. 6; biopsies of two breast cancer patients; three biopsy areas combined
Excerpt: The present anti-BC12/BINI antibodies are labelled “HSB2B” and a clone number (see Table A); “HSBXB” is an antibody against Bc1-x1/Bim and “HSMCB” is an antibody against MCL-1/BIM. Using an analogous staining method to that described in FIG. 5, serial sections of two different patients' breast cancer biopsies (“Breast Cancer Patient 1 & 2”) were stained at the same time, under the identical conditions for relative reactivity with HSB2B mAbs 2H3 and 10C10, HSMCB and HSBXB. Cytoplasmic staining levels of individual cells from three different biopsy areas for each patient biopsy were combined and plotted as dot/bar graphs. […] The acquisition of data following staining with different HSA classes is planned to be of clinical utility to determine the relative dependencies of different cancers on different Bc12 family members.

[5] = test system: small cell lung cancer tissue; assay: IHC on FFPE small cell lung cancer tissue; conditions: for cytoplasmic staining level (Mean Cytoplasmic OD) of tumor cells versus negative control: FIG. 4 (ii), four biopsy areas; for cytoplasmic staining level (Mean Cytoplasmic OD) of tumor cells versus negative control / cytoplasmic staining level of individual cells versus negative control: Mann Whitney ****p<0.001; for reactivity by IHC with small cell lung cancer tissue: FIG. 4, FFPE secondary (colon) tumor biopsy, anti-mouse IgG HRP, DAB; for cytoplasmic staining level of individual cells versus negative control: FIG. 5 (ii), three biopsy areas combined
Excerpt: Serial sections of a FFPE secondary (colon) tumor biopsy were stained with the HSB2B clones or, as a negative control, no primary antibody (“neg control”). Antibody binding was detected with anti-mouse IgG HRP and developed using a DAB substrate to yield a brown stain. Nuclei were counterstained blue with Hematoxylin. Four corresponding biopsy areas (A-D) were imaged per biopsy for analysis. FIG. 4 (i) is a panel of images showing the magnitude of staining with each HSB2B mAb for one of the four biopsy areas acquired for each stained biopsy. […] Cellular architecture (middle row) was then defined using HALO image analysis software (left hand color key, TIL=tumor infiltrating lymphocytes), most importantly to define the location of the tumor cells. […] (ii) Dot plot/bar chart showing the cytoplasmic staining levels (Mean Cytoplasmic OD) for each of the tumor cells for the four different biopsy areas. The dots represent cytoplasmic staining intensities for individual cells. Medians and interquartile ranges are plotted. (Mann Whitney) statistical comparisons of staining intensity were performed between cells from HSB2B stained tissue and negative (neg) control tissue for each of the four areas of biopsy. ****p<0.001.
The present anti-BC12/BIM antibodies are labelled “HSB2B” and a clone number (see Table A); “HSBXB” is an antibody against Bc1-x1/Bim and “HSMCB” is an antibody against MCL-1/BIM. […] FIG. 5 (ii) is cytoplasmic staining levels of individual cells from three different biopsy areas were combined and plotted as dot/bar graphs. The dots represent cytoplasmic staining intensities for individual cells. Medians and interquartile ranges are plotted. (Mann Whitney) statistical comparisons of staining intensity were performed between cells from HSA stained tissue and negative (neg) control tissue. **** p<0.001. […] The acquisition of data following staining with different HSA classes is planned to be of clinical utility to determine the relative dependencies of different cancers on different Bc12 family members.

T1 sequence (P02769 25-607 limits assumed): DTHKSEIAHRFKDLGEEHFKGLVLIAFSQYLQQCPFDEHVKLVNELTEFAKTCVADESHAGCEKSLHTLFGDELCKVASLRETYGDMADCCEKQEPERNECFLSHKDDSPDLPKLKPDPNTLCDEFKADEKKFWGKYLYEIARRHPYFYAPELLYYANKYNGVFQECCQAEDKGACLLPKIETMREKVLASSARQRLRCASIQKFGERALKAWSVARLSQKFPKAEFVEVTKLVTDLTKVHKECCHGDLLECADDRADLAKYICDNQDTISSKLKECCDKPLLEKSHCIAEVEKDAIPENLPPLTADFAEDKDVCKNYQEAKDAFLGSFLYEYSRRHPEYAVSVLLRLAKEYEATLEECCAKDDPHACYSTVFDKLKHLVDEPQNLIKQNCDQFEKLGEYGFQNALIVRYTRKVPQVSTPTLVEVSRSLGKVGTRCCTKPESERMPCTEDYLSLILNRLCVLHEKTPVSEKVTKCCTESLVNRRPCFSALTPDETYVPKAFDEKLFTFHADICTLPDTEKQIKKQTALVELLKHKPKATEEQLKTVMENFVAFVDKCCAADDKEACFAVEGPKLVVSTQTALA

| Molecule | binding result [1] | binding result [2] | binding result (GST_Bc12 (Bc12 monomer)) | antigen reactivity of hybridoma supernatants (OD450) [4] | cross-reactivity with Bc12:BAX heterodimer (Bc12:BAX heterodimers) | cytoplasmic staining level of individual cells versus negative control (breast cancer tissue) | cytoplasmic staining level (Mean Cytoplasmic OD) of tumor cells versus negative control [5] | reactivity by IHC with small cell lung cancer tissue [5] | cytoplasmic staining level of individual cells versus negative control [5] | hybridoma supernatant reactivity among a more exhaustive range of antigens [4] | further results |
| --- | --- | --- | --- | --- | --- | --- | --- | --- | --- | --- | --- |
| 28A9: mouse IgG monoclonal antibody specific for the Bc12:Bim heterodimer; Hv SEQ ID NO: 17, Lv SEQ ID NO: 21 (antibody, V domains shown) VH: DVQLQESGPGLVKPSQSLSLTCSVTGYSITSGYYWNWIRQFPGNKLEWMGYISYDGSNNYNPSLKNRISITRDTSKNQFFLKLNSVTTEDTATYYCARDGTTVVATLAYWGQGTLVTVSA VL: QIVLTQSPAIMSASPGEKVTISCSASSSVSYMYWYQQKPGSSPKPWIYRTSNLASGVPARFSGSGSGTSYSLTISSMEAEDAATYYCQQYHSYPPTFGAGTKLELK | – | – | – | specific for the Bc12:Bim heterodimeric complex | – | – | – | – | – | – | ABT199 cross-reactivity [3]: low; physiological heterodimer reactivity (selectivity) (Bc12:BIM heterodimer): restricted to Bc12:BIM |
| HSB2B clone 10C10F7 (antibody, V domains shown, Mouse IgG, tested as hybridoma supernatant; also called HSB2B mAb 10C10) VH: QVQLQQPGAELVKPGASVKLSCKASGYTFTSYWMHWVKQRPGRGLEWIGRIDPNSGGTKSNEKFNNKATLTVDKSSSTAYMQLSSLTSEDSAVYYCARWWDYDYFDYWGQGTTLTVSS VL: DIVMTQSPSSLTVTAGEKVTMSCKSSQSLLNSGNQKNYLTWYQQKPGQPPKLLIYWASTRESGVPDRFTGSGSGTDFTLTISNVQAEDLAVYYCQNDYNYPLTFGAGTKLELK | no binding | no binding | no binding | – | – | – | – | – | – | – | – |
| 2H3: mouse IgG monoclonal antibody specific for the Bc12:Bim heterodimer; Hv SEQ ID NO: 25, Lv SEQ ID NO: 29 (antibody, V domains shown) VH: QVQLQQPGAELVKPGTSVKLSCQASGYTFASYWMHWVKQRPGRGLEWIGRIDPNSGGTKYNEKFKSKVTLTVDKPSSAAYMQLSSLTSEDSAVYYCARWWDYDYFDYWGQGTTLTVSS VL: DIVMTQSPSSLTVTAGEKVTMSCKSSQSLLNSGNQKRYLTWYQQKPGQPPKLLIYWASTRESGVPDRFTGSGSGTDFTLTISSVQAEDLAVYYCQNDYNYPLTFGSGTKLELK | – | – | – | specific for the Bc12:Bim heterodimeric complex | cross-reactivity between Bc12:BIM and Bc12:BAX heterodimers | higher level of staining | higher level of cytoplasmic stain | can react with small cell lung cancer tissue | higher level of staining | specific reactivity for the Bc12:Bim complex | – |
| 10C10: mouse IgG monoclonal antibody specific for the Bc12:Bim heterodimer; Hv SEQ ID NO: 1, Lv SEQ ID NO: 5 (antibody, V domains shown) VH: QVQLQQPGAELVKPGASVKLSCKASGYTFTSYWMHWVKQRPGRGLEWIGRIDPNSGGTKSNEKFNNKATLTVDKSSSTAYMQLSSLTSEDSAVYYCARWWDYDYFDYWGQGTTLTVSS VL: DIVMTQSPSSLTVTAGEKVTMSCKSSQSLLNSGNQKNYLTWYQQKPGQPPKLLIYWASTRESGVPDRFTGSGSGTDFTLTISNVQAEDLAVYYCQNDYNYPLTFGAGTKLELK | – | – | – | specific for the Bc12:Bim heterodimeric complex | cross-reactivity between Bc12:BIM and Bc12:BAX heterodimers | higher level of staining | higher level of cytoplasmic stain | can react with small cell lung cancer tissue | higher level of staining | specific reactivity for the Bc12:Bim complex | – |

Second part, led by results:

| binding result [1] | binding result [2] | binding result (GST_Bc12 (Bc12 monomer)) | Molecule | antigen reactivity of hybridoma supernatants (OD450) [4] | cross-reactivity with Bc12:BAX heterodimer (Bc12:BAX heterodimers) | cytoplasmic staining level of individual cells versus negative control (breast cancer tissue) | cytoplasmic staining level (Mean Cytoplasmic OD) of tumor cells versus negative control [5] | reactivity by IHC with small cell lung cancer tissue [5] | cytoplasmic staining level of individual cells versus negative control [5] | hybridoma supernatant reactivity among a more exhaustive range of antigens [4] | further results |
| --- | --- | --- | --- | --- | --- | --- | --- | --- | --- | --- | --- |
| no binding | no binding | – | HSB2B clone 28A9D11 (antibody, V domains shown, Mouse IgG, tested as hybridoma supernatant) VH: DVQLQESGPGLVKPSQSLSLTCSVTGYSITSGYYWNWIRQFPGNKLEWMGYISYDGSNNYNPSLKNRISITRDTSKNQFFLKLNSVTTEDTATYYCARDGTTVVATLAYWGQGTLVTVSA VL: QIVLTQSPAIMSASPGEKVTISCSASSSVSYMYWYQQKPGSSPKPWIYRTSNLASGVPARFSGSGSGTSYSLTISSMEAEDAATYYCQQYHSYPPTFGAGTKLELK | – | – | – | – | – | – | – | – |
| no binding | no binding | no binding | HSB2B clone 2H3G7 (antibody, V domains shown, Mouse IgG, tested as hybridoma supernatant; also called HSB2B mAb 2H3) VH: QVQLQQPGAELVKPGTSVKLSCQASGYTFASYWMHWVKQRPGRGLEWIGRIDPNSGGTKYNEKFKSKVTLTVDKPSSAAYMQLSSLTSEDSAVYYCARWWDYDYFDYWGQGTTLTVSS VL: DIVMTQSPSSLTVTAGEKVTMSCKSSQSLLNSGNQKRYLTWYQQKPGQPPKLLIYWASTRESGVPDRFTGSGSGTDFTLTISSVQAEDLAVYYCQNDYNYPLTFGSGTKLELK | – | – | – | – | – | – | – | – |
